Source: patent US20230346885A1 (published 2023)
Blank lines part the entries; values can stand above or below the binder they belong to.

How the values were obtained:
Assay in all cases: binding, other
NR0B1 peptide on HLA [1] = molecular target: T1, NR0B1 peptide on HLA (human)
T1 peptide: GLLKTLRFV

RLN1 peptide on HLA [2] = molecular target: T2, RLN1 peptide on HLA (human)
T2 peptide: FIANLPPELKA

PAEP peptide on HLA = molecular target: T3, PAEP peptide on HLA (human)
T3 peptide: AMATNNISL

PAGE5 peptide on HLA = molecular target: T4, PAGE5 peptide on HLA (human)
T4 peptide: TLPTFDPTKV

RLN1 peptide on HLA [3] = molecular target: T5, RLN1 peptide on HLA (human)
T5 peptide: LLLNQFSRA

PAGE2 peptide on HLA = molecular target: T6, PAGE2 peptide on HLA (human)
T6 peptide: IMPTFDLTKV

NR0B1 peptide on HLA [4] = molecular target: T7, NR0B1 peptide on HLA (human)
T7 peptide: GLPGGRPVAL

binding result (NR0B1 peptide on HLA [1]): recognises
B1: TCR of SEQ ID NOs 451 and 452 (TCR, V domains shown)
Valpha: KQEVTQIPAALSVPEGENLVLNCSFTDSAIYNLQWFRQDPGKGLTSLLLIQSSQREQTSGRLNASLDKSSGRSTLYIAASQPGDSATYLCAVGTDSWGKFQFGAGTQVVVTP
Vbeta: NAGVTQTPKFQVLKTGQSMTLQCAQDMNHEYMSWYRQDPGMGLRLIHYSVGAGITDQGEVPNGYNVSRSTTEDFPLRLLSAAPSQTSVYFCASSYSVDSPLHFGNGTRLSVL

binding result (NR0B1 peptide on HLA [1]): recognises
B2: TCR of SEQ ID NOs 453 and 454 (TCR, V domains shown)
Valpha: KQEVTQIPAALSVPEGENLVLNCSFTDSAIYNLQWFRQDPGKGLTSLLLIQSSQREQTSGRLNASLDKSSGRSTLYIAASQPGDSATYLCAVGTDSWGKFQFGAGTQVVVTP
Vbeta: NAGVTQTPKFQVLKTGQSMTLQCAQDMNHEYMSWYRQDPGMGLRLIHYSVGAGITDQGEVPNGYNVSRSTTEDFPLRLLSAAPSQTSVYFCASSFSPNTEAFFGQGTRLTVV

binding result (RLN1 peptide on HLA [2]): recognises
B3: TCR of SEQ ID NOs 519 and 520 (TCR, V domains shown)
Valpha: KQEVTQIPAALSVPEGENLALNCSFTDSAIYNLQWFRQDPGKGLTSLLLIQSSQREQTSGRLNASLDKSSGRSTLYIAASQPGDSATYLCAVNAGGTSYGKLTFGQGTILTVHP
Vbeta: NAGVTQTPKFQVLKTGQSMTLQCAQDMNHNSMYWYRQDPGMGLRLIYYSASEGTTDKGEVPNGYNVSRLNKREFSLRLESAAPSQTSVYFCASSYWREYYEQYFGPGTRLTVT

binding result (PAEP peptide on HLA): recognises
B4: TCR of SEQ ID NOs 463 and 464 (TCR, V domains shown)
Valpha: KQEVTQIPAALSVPEGENLVLNCSFTDSAIYNLQWFRQDPGKGLTSLLLIQSSQREQTSGRLNASLDKSSGRSTLYIAASQPGDSATYLCAVQGGSEKLVFGKGTKLTVNP
Vbeta: NAGVTQTPKFQVLKTGQSMTLQCAQDMNHNSMYWYRQDPGMGLRLIYYSASEGTTDKGEVPNGYNVSRLNKREFSLRLESAAPSQTSVYFCASSEEWSYGYTFGSGTRLTVV

binding result (RLN1 peptide on HLA [2]): recognises
B5: TCR of SEQ ID NOs 515 and 516 (TCR, V domains shown)
Valpha: KQEVTQIPAALSVPEGENLVLNCSFTDSAIYNLQWFRQDPGKGLTSLLLIQSSQREQTSGRLNASLDKSSGRSTLYIAASQPGDSATYLCAVVSNNDMRFGAGTRLTVKP
Vbeta: NAGVTQTPKFQVLKTGQSMTLQCAQDMNHEYMSWYRQDPGMGLRLIHYSVGAGITDQGEVPNGYNVSRSTTEDFPLRLLSAAPSQTSVYFCASSLHSPVQGDYGYTFGSGTRLTVV

binding result (PAGE5 peptide on HLA): recognises
B6: TCR of SEQ ID NOs 491 and 492 (TCR, V domains shown)
Valpha: KQEVTQIPAALSVPEGENLVLNCSFTDSAIYNLQWFRQDPGKGLTSLLLIQSSQREQTSGRLNASLDKSSGRSTLYIAASQPGDSATYLCAVSNSGGYQKVTFGTGTKLQVIP
Vbeta: NAGVTQTPKFQVLKTGQSMTLQCAQDMNHEYMSWYRQDPGMGLRLIHYSVGAGITDQGEVPDGYNVSRSTTEDFPLRLLSAAPSQTSVYFCASSYSTGSYEQYFGPGTRLTVT

binding result (PAGE5 peptide on HLA): recognises
B7: TCR of SEQ ID NOs 495 and 496 (TCR, V domains shown)
Valpha: KQEVTQIPAALSVPEGENLVLNCSFTDSAIYNLQWFRQDPGKGLTSLLLIQSSQREQTSGRLNASLDKSSGRSTLYIAASQPGDSATYLCAVGNSGGYQKVTFGTGTKLQVIP
Vbeta: NAGVTQTPKFQVLKTGQSMTLQCAQDMNHEYMSWYRQDPGMGLRLIHYSVGAGITDQGEVPNGYNVSRSTTEDFPLRLLSAAPSQTSVYFCASSYSTGSYGYTFGSGTRLTVV

binding result (PAGE5 peptide on HLA): recognises
B8: TCR of SEQ ID NOs 493 and 494 (TCR, V domains shown)
Valpha: KQEVTQIPAALSVPEGENLVLNCSFTDSAIYNLQWFRQDPGKGLTSLLLIQSSQREQTSGRLNASLDKSSGRSTLYIAASQPGDSATYLCAVGNSGGYQKVTFGTGTKLQVIP
Vbeta: NAGVTQTPKFQVLKTGQSMTLQCAQDMNHEYMSWYRQDPGMGLRLIHYSVGAGITDQGEVPNGYNVSRSTTEDFPLRLLSAAPSQTSVYFCASSYSTGSYEQYFGPGTRLTVT

binding result (RLN1 peptide on HLA [3]): recognises
B9: TCR of SEQ ID NOs 531 and 532 (TCR, V domains shown)
Valpha: KQEVTQIPAALSVPEGENLVLNCSFTDSAIYNLQWFRQDPGKGLTSLLLIQSSQREQTSGRLNASLDKSSGRSTLYIAASQPGDSATYLCAVLSNFGNEKLTFGTGTRLTIIP
Vbeta: NAGVTQTPKFRILKIGQSMTLQCTQDMNHNYMYWYRQDPGMGLKLIYYSVGAGITDKGEVPNGYNVSRSTTEDFPLRLLSAAPSQTSVYFCASTREAGLDYGYTFGSGTRLTVV

binding result (PAEP peptide on HLA): recognises
B10: TCR of SEQ ID NOs 461 and 462 (TCR, V domains shown)
Valpha: KQEVTQIPAALSVPEGENLVLNCSFTDSAIYNLQWFRQDPGKGLTSLLLIQSSQREQTSGRLNASLDKSSGRSTLYIAASQPGDSATYLCAVSRSWGKFQFGAGTQVVVTP
Vbeta: NAGVTQTPKFQVLKTGQSMTLQCAQDMNHEYMSWYRQDPGMGLRLIHYSVGAGITDQGEVPNGYNVSRLNKREFSLRLESAAPSQTSVYFCASSLTGGAEYGYTFGSGTRLTVV

binding result (RLN1 peptide on HLA [3]): recognises
B11: TCR of SEQ ID NOs 529 and 530 (TCR, V domains shown)
Valpha: KQEVTQIPAALSVPEGENLVLNCSFTDSAIYNLQWFRQDPGKGLTSLLLIQSSQREQTSGRLNASLDKSSGRSTLYIAASQPGDSATYLCAVRPSTDSWGKLQFGAGTQVVVTP
Vbeta: NAGVTQTPKFQVLKTGQSMTLQCAQDMNHEYMSWYRQDPGMGLRLIHYSVGAGITDQGEVPNGYNVSRSTTEDFPLRLLSAAPSQTSVYFCASSPTGYYGYTFGSGTRLTVV

binding result (PAGE2 peptide on HLA): recognises
B12: TCR of SEQ ID NOs 489 and 490 (TCR, V domains shown)
Valpha: KQEVTQIPAALSVPEGENLVLNCSFTDSAIYNLQWFRQDPGKGLTSLLLIQSSQREQTSGRLNASLDKSSGRSTLYIAASQPGDSATYLCAVRGDYKLSFGAGTTVTVRA
Vbeta: NAGVTQTPKFQVLKTGQSMTLQCAQDMNHNSMYWYRQDPGMGLRLIYYSASEGTTDKGEVPNGYNVSRLNKREFSLRLESAAPSQTSVYFCASSDPLGGLYGYTFGSGTRLTVV

binding result (NR0B1 peptide on HLA [4]): recognises
B13: TCR of SEQ ID NOs 457 and 458 (TCR, V domains shown)
Valpha: KQEVTQIPAALSVPEGENLVLNCSFTDSAIYNLQWFRQDPGKGLTSLLLIQSSQREQTSGRLNASLDKSSGRSTLYIAASQPGDSATYLCAVSGYSTLTFGKGTMLLVSP
Vbeta: NAGVTQTPKFRVLKTGQSMTLLCAQDMNHEYMYWYRQDPGMGLRLIHYSVGEGTTAKGEVPDGYNVSRLKKQNFLLGLESAAPSQTSVYFCASTGGGPPLNTEAFFGQGTRLTVV

binding result (PAEP peptide on HLA): recognises
B14: TCR of SEQ ID NOs 465 and 466 (TCR, V domains shown)
Valpha: KQEVTQIPAALSVPEGENLVLNCSFTDSAIYNLQWFRQDPGKGLTSLLLIQSSQREQTSGRLNASLDKSSGRSTLYIAASQPGDSATYLCAVRSYNQFYFGTGTSLTVIP
Vbeta: NAGVTQTPKFQVLKTGQSMTLQCAQDMNHEYMSWYRQDPGMGLRLIHYSVGAGITDQGEVPNGYNVSRSTTEDFPLRLLSAAPSQTSVYFCASSPGGPSTEAFFGQGTRLTVV

binding result (NR0B1 peptide on HLA [4]): recognises
B15: TCR of SEQ ID NOs 459 and 460 (TCR, V domains shown)
Valpha: KQEVTQIPAALSVPEGENLVLNCSFTDSAIYNLQWFRQDPGKGLTSLLLIQSSQREQTSGRLNASLDKSSGRSTLYIAASQPGDSATYLCAASGYSTLTFGKGTMLLVSP
Vbeta: NAGVTQTPKFQVLKTGQSMTLQCAQDMNHEYMSWYRQDPGMGLRLIHYSVGAGITDQGEVPNGYNVSRSTTEDFPLRLLSAAPSQTSVYFCASRLGQFGQAFFGQGTRLTVV

binding result (RLN1 peptide on HLA [2]): recognises
B16: TCR of SEQ ID NOs 517 and 518 (TCR, V domains shown)
Valpha: KQEVTQIPAALSVPEGENLVLNCSFTDSAIYNLQWFRQDPGKGLTSLLLIQSSQREQTSGRLNASLDKSSGRSTLYIAASQPGDSATYLCAPGGYQKVTFGTGTKLQVIP
Vbeta: NAGVTQTPKFQVLKTGQSMTLQCAQDMNHEYMSWYRQDPGMGLRLIHYSVGAGITDQGEVPNGYNVSRSTTEDFPLRLLSAAPSQTSVYFCASRRDPLGGYTFGSGTRLTVV

binding result (NR0B1 peptide on HLA [1]): recognises
B17: TCR of SEQ ID NOs 449 and 450 (TCR, V domains shown)
Valpha: KQEVTQIPAALSVPEGENLVLNCSFTDSAIYNLQWFRQDPGKGLTSLLLIQSSQREQTSGRLNASLDKSSGRSTLYIAASQPGDSATYLCAVRPGDSWGKLQFGAGTQVVVTP
Vbeta: NAGVTQTPKFQVLKTGQSMTLQCAQDMNHEYMSWYRQDPGMGLKLIYYSVGAGITDKGEVPNGYNVSRSTTEDFPLRLLSAAPSQTSVYFCASSSPVGTAFFGQGTRLTVV

binding result (NR0B1 peptide on HLA [4]): recognises
B18: TCR of SEQ ID NOs 455 and 456 (TCR, V domains shown)
Valpha: KQEVTQIPAALSVPEGENLVLNCSFTDSAIYNLQWFRQDPGKGLTSLLLIQSSQREQTSGRLNASLDKSSGRSTLYIAASQPGDSATYLCAVRGYQKVTFGTGTKLQVIP
Vbeta: NAGVTQTPKFQVLKTGQSMTLQCAQDMNHEYMSWYRQDPGMGLRLIHYSVGAGITDQGEVPNGYNVSRSTTEDFPLRLLSAAPSQTSVYFCATSGLNTEAFFGQGTRLTVV

binding result (RLN1 peptide on HLA [3]): recognises
B19: TCR of SEQ ID NOs 527 and 528 (TCR, V domains shown)
Valpha: KQEVTQIPAALSVPEGENLVLNCSFTDSAIYNLQWFRQDPGKGLTSLLLIQSSQREQTSGRLNASLDKSSGRSTLYIAASQPGDSATYLCAVRPSGSARQLTFGSGTQLTVLP
Vbeta: NAGVTQTPKFQVLKTGQSMTLQCAQDMNHEYMSWYRQDPGMGLRLIHYSVGAGITDQGEVPNGYNVSRSTTEDFPLRLLSAAPSQTSVYFCASSYGVYTEAFFGQGTRLTVV

binding result (PAGE2 peptide on HLA): recognises
B20: TCR of SEQ ID NOs 485 and 486 (TCR, V domains shown)
Valpha: KQEVTQIPAALSVPEGENLVLNCSFTDSAIYNLQWFRQDPGKGLTSLLLIQSSQREQTSGRLNASLDKSSGRSTLYIAASQPGDSATYLCAVRLRGSARQLTFGSGTQLTVLP
Vbeta: NAGVTQTPKFRVLKTGQSMTLLCAQDMNHEYMYWYRQDPGMGLRLIHYSVGEGTTAKGEVPDGYNVSRLKKQNFLLGLESAAPSQTSVYFCASSYSIEFTEAFFGQGTRLTVV

binding result (PAGE2 peptide on HLA): recognises
B21: TCR of SEQ ID NOs 487 and 488 (TCR, V domains shown)
Valpha: KQEVTQIPAALSVPEGENLVLNCSFTDSAIYNLQWFRQDPGKGLTSLLLIQSSQREQTSGRLNASLDKSSGRSTLYIAASQPGDSATYLCALGYRGSARQLTFGSGTQLTVLP
Vbeta: NAGVTQTPKFRVLKTGQSMTLLCAQDMNHEYMYWYRQDPGMGLRLIHYSVGEGTTAKGEVPDGYNVSRLNKREFSLRLESAAPSQTSVYFCASSVGYPGELFFGEGSRLTVL
